The values that follow come from PMC12802937 (Nucleic Acids Research, 2026).

Changes are numbered by the printed parent chain.

Holding throughout (conditions): both partners purified
Test [1] addresses T1, Bre1-LR (Bre1 residues 227–700, LBD and RING domains), 6× histidine tag (budding yeast, UniProt Q07457 227-700).
T1 construct: two Bre1 polypeptides form the dimeric coiled-coils of the LBD in the crystal structure; also called WT; source: E. coli BL21 Rosetta (DE3), purified (Ni-NTA, heparin, gel filtration)
T1 sequence (looked up): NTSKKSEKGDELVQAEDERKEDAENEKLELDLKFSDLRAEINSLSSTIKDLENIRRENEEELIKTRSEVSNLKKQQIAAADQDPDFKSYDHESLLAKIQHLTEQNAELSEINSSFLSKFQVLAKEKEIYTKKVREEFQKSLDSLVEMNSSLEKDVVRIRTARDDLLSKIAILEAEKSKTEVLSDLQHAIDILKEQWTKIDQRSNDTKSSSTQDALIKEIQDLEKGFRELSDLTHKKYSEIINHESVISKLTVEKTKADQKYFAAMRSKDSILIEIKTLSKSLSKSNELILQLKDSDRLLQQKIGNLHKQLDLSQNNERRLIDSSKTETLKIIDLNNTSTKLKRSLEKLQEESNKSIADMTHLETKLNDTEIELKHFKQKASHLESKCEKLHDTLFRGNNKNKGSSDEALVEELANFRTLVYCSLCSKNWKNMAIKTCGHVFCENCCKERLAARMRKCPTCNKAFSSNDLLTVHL
Put plainly: ITC; Lge1-CT (50–60 μM) injected into Bre1-LR (15 μM); 25°C, 20 mM TRIS (pH 7.5), 300 mM sodium chloride. Background: ITC needs no label: the signal is the heat of the interaction.

The target of test [2] is T2, Bre1-LR V382N (budding yeast, UniProt Q07457 227-700, V382N).
T2 construct: source: E. coli BL21 Rosetta (DE3), purified (Ni-NTA, heparin, gel filtration)
T2 sequence (looked up): T1 sequence (looked up) with V156N
Put plainly: SPR; Lge1-CT immobilised on a CM5 chip, Bre1-LR flown over; Biacore 8K, 25°C, 20 mM HEPES (pH 7.5), 200 mM sodium chloride, 0.02% Tween 20.

The target of test [3] is T3, Bre1-LR A489N (budding yeast, UniProt Q07457 227-700, A489N).
T3 construct: source: E. coli BL21 Rosetta (DE3), purified (Ni-NTA, heparin, gel filtration)
T3 sequence (looked up): T1 sequence (looked up) with A263N
The test is described as above.

Test [4] concerns the target T4, Bre1-LR K379E (budding yeast, UniProt Q07457 227-700, K379E).
T4 construct: source: E. coli BL21 Rosetta (DE3), purified (Ni-NTA, heparin, gel filtration)
T4 sequence (looked up): T1 sequence (looked up) with K153E
The description is as above.

A word on the Kd: it is the equilibrium constant for the complex coming apart. Lower therefore signals a tighter complex. In general, stoichiometry N refers to a count of units in the complex or per binding partner.

B1: Lge1-CT (Lge1 residues 261–332), intein-chitin binding domain (CBD) tag construct (domain or fragment, budding yeast, UniProt Q02796 261-332, looked up)
chain: KNVKKTNNTESECEKAREVFKESDSIDSALEELNLKINSNELELRLLNNQCDKHALNIQLTQEKLDSLLLMQ
notes: Lge1, budding yeast, residues 261-332; residues 268–331 resolved in the electron density; the intein-CBD tag is named on the protein in the pull-down; also called intein-CBD-fused Lge1-CT; intein-CBD-tagged Lge1-CT; source: E. coli BL21 Rosetta (DE3): cleared cell extract on chitin resin (pull-down); purified (chitin, heparin, gel filtration) for ITC and SPR; co-purified with Bre1-LR for the …
As for B1, the Kd in test [1] is 2.7 ± 1.7 nM; in test [2], 63 nM; in test [3] it was 41.1 nM; in test [4] it was 41.3 nM. Also, the dH in test [1] is -38.8 ± 0.6 kcal/mol. Moreover, in test [1], the “stoichiometry N” value is 0.318 ± 0.002.
